Measured values as given in patent US7727950.

Columns and labels:
[1] = target: T1, generic peptide substrate RARTLSFAEPG
T1 chain: RARTLSFAEPG

[2] = target: T2, standard peptide substrate KKLNRTLSVA
T2 chain: KKLNRTLSVA

[3] = target: T3, standard peptide substrate LRRASLG
T3 chain: LRRASLG

[4] = target: T4, generic peptide substrate KKLNRTLSFAEPG
T4 chain: KKLNRTLSFAEPG

[5] = target: T5, generic peptide substrate RRRLSFAEPG
T5 chain: RRRLSFAEPG

[6] = target: T6, standard peptide substrate KEAKEKRQEQIAKRRRLSSLRASTSKSGGSQK
T6 chain: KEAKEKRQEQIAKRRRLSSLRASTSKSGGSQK

[7] = target: T7, standard peptide substrate GRPRTSSFAEG
T7 chain: GRPRTSSFAEG

[8] = target: T8, standard peptide substrate KKLRRTLSVA
T8 chain: KKLRRTLSVA

[9] = target: T9, standard peptide substrate HMRSAMSGLHLVKRR
T9 chain: HMRSAMSGLHLVKRR

[10] = target: T10, standard peptide substrate KKKVSRSGLYRSPSMPENLNRPR
T10 chain: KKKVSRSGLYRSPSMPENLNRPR

B1: MAPKAP-K3 (protein)
chain: MDGETAEEQGGPVPPPVAPGGPGLGGAPGGRREPKKYAVTDDYQLSKQVLGLGVNGKVLECFHRRTGQKCALKLLYDSPKARQEVDHHWQASGGPHIVCILDVYENMHHGKRCLLIIMECMEGGELFSRIQERGDQAFTEREAAEIMRDIGTAIQFLHSHNIAHRDVKPENLLYTSKEKDAVLKLTDFGFAKETTQNALQTPCYTPYYVAPEVLGPEKYDKSCDMWSLGVIMYILLCGFPPFYSNTGQAISPGMKRRIRLGQYGFPNPEWSEVSEDAKQLIRLLLKTDPTERLTITQFMNHPWINQSMVVPQTPLHTARVLQEDKDHWDEVKEEMTSALATMRVDYDQVKIKDLKTSNNRLLNKRRKKQAGSSSASQGCNNQ
Km [1]: 30 µM
Km [2]: 18 µM

B2: p70 ribosomal S6 kinase 1 (S6K1[T412E], lacking the C-terminal 104 residues) (protein)
chain: MRRRRRRDGFYPAPDFRDREAEDMAGVFDIDLDQPEDAGSEDELEEGGQLNESMDHGGVGPYELGMEHCEKFEISETSVNRGPEKIRPECFELLRVLGKGGYGKVFQVRKVTGANTGKIFAMKVLKKAMIVRNAKDTAHTKAERNILEEVKHPFIVDLIYAFQTGGKLYLILEYLSGGELFMQLEREGIFMEDTACFYLAEISMALGHLHQKGIIYRDLKPENIMLNHQGHVKLTDFGLCKESIHDGTVTHTFCGTIEYMAPEILMRSGHNRAVDWWSLGALMYDMLTGAPPFTGENRKKTIDKILKCKLNLPPYLTQEARDLLKKLLKRNAASRLGAGPGDAGEVQAHPFFRHINWEELLARKVEPPFKPLLQSEEDVSQFDSKFTRQTPVDSPDDSTLSESANQVFLGFEYVAPSVLES
Km [3]: 8 µM
Km [4]: 6 µM

B3: cGMP-dependent protein kinase (PKG) (protein)
chain: SELEEDFAKILMLKEERIKELEKRLSEKEEEIQELKRKLHKCQSVLPVPSTHIGPRTTRAQGISAEPQTYRSFHDLRQAFRKFTKSERSKDLIKEAILDNDFMKNLELSQIQEIVDCMYPVEYGKDSCIIKEGDVGSLVYVMEDGKVEVTKEGVKLCTMGPGKVFGELAILYNCTRTATVKTLVNVKLWAIDRQCFQTIMMRTGLIKHTEYMEFLKSVPTFQSLPEEILSKLADVLEETHYENGEYIIRQGARGDTFFIISKGKVNVTREDSPNEDPVFLRTLGKGDWFGEKALQGEDVRTANVIAAEAVTCLVIDRDSFKHLIGGLDDVSNKAYEDAEAKAKYEAEAAFFANLKLSDFNIIDTLGVGGFGRVELVQLKSEESKTFAMKILKKRHIVDTRQQEHIRSEKQIMQGAHSDFIVRLYRTFKDSKYLYMLMEACLGGELWTILRDRGSFEDSTTRFYTACVVEAFAYLHSKGIIYRDLKPENLILDHRGYAKLVDFGFAKKIGFGKKTWTFCGTPEYVAPEIILNKGHDISADYWSLGILMYELLTGSPPFSGPDPMKTYNIILRGIDMIEFPKKIAKNAANLIKKLCRDNPSERLGNLKNGVKDIQKHKWFEGFNWEGLRKGTLTPPIIPSVASPTDTSNFDSFPEDNDEPPPDDNSGWDIDF
Km [5]: 50 µM
Km [6]: 5 µM

B4: protein kinase B alpha (PKBα) (protein)
chain: MDFRSGSPSDNSGAEEMEVSLAKPKHRVTMNEFEYLKLLGKGTFGKVILVKEKATGRYYAMKILKKEVIVAKDEVAHTLTENRVLQNSRHPFLTALKYSFQTHDRLCFVMEYANGGELFFHLSRERVFSEDRARFYGAEIVSALDYLHSEKNVVYRDLKLENLMLDKDGHIKITDFGLCKEGIKDGATMKTFCGTPEYLAPEVLEDNDYGRAVDWWGLGVVMYEMMCGRLPFYNQDHEKLFELILMEEIRFPRTLGPEAKSLLSGLLKKDPKQRLGGGSEDAKEIMQHRFFAGIVWQHVYEKKLSPPFKPQVTSETDTRYFDEEFTAQMITITPPDQDDSMECVDSERRPHFPQFSYSASGTA
Km [7]: 4 µM
Km [4]: 2 µM

B5: serum and glucocorticoid-induced kinase 1 (SGK1[S422D] and lacking the N-terminal 59 residues) (protein)
chain: ISQPQEPELMNANPSPPPSPSQQINLGPSSNPHAKPSDFHFLKVIGKGSFGKVLLARHKAEEVFYAVKVLQKKAILKKKEEKHIMSERNVLLKNVKHPFLVGLHFSFQTADKLYFVLDYINGGELFYHLQRERCFLEPRARFYAAEIASALGYLHSLNIVYRDLKPENILLDSQGHIVLTDFGLCKENIEHNSTTSTFCGTPEYLAPEVLHKQPYDRTVDWWCLGAVLYEMLYGLPPFYSRNTAEMYDNILNKPLQLKPNITNSARHLLEGLLQKDRTKRLGAKDDFMEIKSHVFFSLINWDDLINKKITPPFNPNVSGPNDLRHFDPEFTEEPVPNSIGKSPDSVLVTASVKEAAEAFLGFDYAPPTDSFL
Km [7]: 4 µM
Km [4]: 4 µM

B6: p38 regulated/activated kinase (PRAK) (protein)
chain: MSEESDMDKAIKETSILEEYSINWTQKLGAGISGPVRVCVKKSTQERFALKILLDRPKARNEVRLHMMCATHPNIVQIIEVFANSVQFPHESSPRARLLIVMEMMEGGELFHRISQHRHFTEKQASQVTKQIALALRHCHLLNIAHRDLKPENLLFKDNSLDAPVKLCDFGFAKIDQGDLMTPQFTPYYVAPQVLEAQRRHQKEKSGIIPTSPTPYTYNKSCDLWSLGVIIYVMLCGYPPFYSKHHSRTIPKDMRRKIMTGSFEFPEEEWSQISEMAKDVVRKLLKVKPEERLTIEGVLDHPWLNSTEALDNVLPSAQLMMDKAVVAGIQQAHAEQLANMRIQDLKVSLKPLHSVNNPILRKRKLLGTKPKDSVYIHDHENGAEDSNVALEKLRDVIAQCILPQAGKGENEDEKLNEVMQEAWKYNRECKLLRDTLQSFSWNGRGFTDKVDRLKLAEIVKQVIEEQTTSHESQ
Km [1]: 40 µM
Km [8]: > 100 µM

B7: AMP-activated protein kinase (AMPK) (protein)
chain: MAEKQKHDGRVKIGHYVLGDTLGVGTFGKVKIGEHQLTGHKVAVKILNRQKIRSLDVVGKIKREIQNLKLFRHPHIIKLYQVISTPTDFFMVMEYVSGGELFDYICKHGRVEEVEARRLFQQILSAVDYCHRHMVVHRDLKPENVLLDAQMNAKIADFGLSNMMSDGEFLRTSCGSPNYAAPEVISGRLYAGPEVDIWSCGVILYALLCGTLPFDDEHVPTLFKKIRGGVFYIPEYLNRSIATLLMHMLQVDPLKRATIKDIREHEWFKQDLPSYLFPEDPSYDANVIDDEAVKEVCEKFECTESEVMNSLYSGDPQDQLAVAYHLIIDNRRIMNQASEFYLASSPPTGSFMDDMAMHIPPGLKPHPERMPPLIADSPKARCPLDALNTTKPKSLAVKKAKWHLGIRSQSKPYDIMAEVYRAMKQLDFEWKVVNAYHLRVRRKNPVTGNYVKMSLQLYLVDNRSYLLDFKSIDDEVVEQRSGSSTPQRSCSAAGLHRPRSSVDSSTAENHSLSGSLTGSLTGSTLSSASPRLGSHTMDFFEMCASLITALAR
Km [1]: 75 µM
Km [9]: 80 µM

B8: rat Rho-dependent protein kinase ROCKII[1-543] (protein)
chain: MSRPPPTGKMPGAPEAAAGDGAGAGRQRKLEALIRDPRSPINVESLLDGLNSLVLDLDFPALRKNKNIDNFLNRYEKIVKKIRGLQMKAEDYDVVKVIGRGAFGEVQLVRHKASQKVYAMKLLSKFEMIKRSDSAFFWEERDIMAFANSPWVVQLFCAFQDDRYLYMVMEYMPGGDLVNLMSNYDVPEKWAKFYTAEVVLALDAIHSMGLIHRDVKPDNMLLDKHGHLKLADFGTCMKMDETGMVHCDTAVGTPDYISPEVLKSQGGDGYYGRECDWWSVGVFLFEMLVGDTPFYADSLVGTYSKIMDHKNSLCFPEDTEISKHAKNLICAFLTDREVRLGRNGVEEIKSASFFKNDQWNWDNIRETAAPVVPELSSDIDSSNFDDIEDDKGDVETFPIPKAFVGNQLPFIGFTYFRENLLLSDSPPCRENDAIQTRKSEESQEIQKKLYALEEHLSSEVQAKEELEQKCKSINTRLEKTAKELEEEITFRKNVESTLRQLEREKALLQHKNAEYQRKADHEADKKRNLENDVNSLKDQLEDL
Km [5]: > 100 µM
Km [6]: 5 µM

B9: Checkpoint Kinase 1 (CHK1) (protein)
chain: MAVPFVEDWDLVQTLGEGAYGEVQLAVNRVTEEAVAVKIVDMKRAVDCPENIKKEICINKMLNHENVVKFYGHRREGNIQYLFLEYCSGGELFDRIEPDIGMPEPDAQRFFHQLMAGVVYLHGIGITHRDIKPENLLLDERDNLKISDFGLATVFRYNNRERLLNKMCGTLPYVAPELLKRREFHAEPVDVWSCGIVLTAMLAGELPWDQPSDSCQEYSDWKEKKTYLNPWKKIDSAPLALLHKILVENPSARITIPDIKKDRWYNKPLKKGAKRPRVTSGGVSESPSGFSKHIQSNLDFSPVNSASSEENVKYSSSQPEPRTGLSLWDTSPSYIDKLVQGISFSQPTCPDHMLLNSQLLGTPGSSQNPWQRLVKRMTRFFTKLDADKSYQCLKETCEKLGYQWKKSCMNQVTISTTDRRNNKLIFKVNLLEMDDKILVDFRLSKGDGLEFKRHFLKIKGKLIDIVSSQKIWLPAT
Km [1]: 5 µM
Km [10]: 5 µM
